Key:
[1] = biological target: MurD (A1S_0245), recombinant, purified (Acinetobacter baumannii); assay: enzyme inhibition curve (HPLC assay of MurD activity); 40 nM MurD; Zn-loaded MigC (1.0 mol equivalent ZnSO4) 0.025-75 µM final, with GTP; enzyme mixture pre-incubated 10 min at 37 °C; 200 µM UMA, 1 mM D-glutamate, 1 mM ATP, 0.1 mg/mL BSA; 25 mM HEPES, 150 mM KCl, 2 mM MgCl2, 2 mM TCEP, pH 7.4, 37 °C; Ki fitted with the maximal inhibition fixed from a global fit
[2] = biological target: MurD (A1S_0245), recombinant, purified (Acinetobacter baumannii)
[3] = biological target: MurD (A1S_0245), recombinant, purified (Acinetobacter baumannii); assay: enzyme inhibition curve (HPLC assay of MurD activity); as a3 but apo MigC (no Zn) with GTP
[4] = biological target: MurD (A1S_0245), recombinant, purified (Acinetobacter baumannii); assay: enzyme inhibition curve (HPLC assay of MurD activity); as a3 but apo MigC (no Zn) without GTP

Chain of MurD (A1S_0245), recombinant, purified (Acinetobacter baumannii) (A3M1C6 whole entry): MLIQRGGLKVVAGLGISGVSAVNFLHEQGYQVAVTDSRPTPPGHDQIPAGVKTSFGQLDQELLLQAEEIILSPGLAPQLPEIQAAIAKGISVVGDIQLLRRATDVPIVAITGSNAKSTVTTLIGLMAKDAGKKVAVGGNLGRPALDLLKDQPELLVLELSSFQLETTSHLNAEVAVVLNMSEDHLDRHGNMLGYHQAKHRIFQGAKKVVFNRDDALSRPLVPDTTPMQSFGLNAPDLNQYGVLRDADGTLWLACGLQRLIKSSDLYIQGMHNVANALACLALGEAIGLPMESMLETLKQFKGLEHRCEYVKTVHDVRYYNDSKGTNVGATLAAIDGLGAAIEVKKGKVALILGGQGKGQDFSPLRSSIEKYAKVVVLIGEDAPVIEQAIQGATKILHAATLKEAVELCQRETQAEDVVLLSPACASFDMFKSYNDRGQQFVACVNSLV

maximal inhibition of MurD activity at saturating Zn-MigC (inhibition curves, 0.025-75 µM MigC, HPLC) [2]	Ki [3]	Ki [4]	Substance	Ki [1]
–	–	–	E99A MigC, recombinant, purified (enzyme)	21 µM
75%	43 µM	20 µM	MigC (A1S_0934), recombinant, purified (enzyme)	32 µM

Source: publication PMC12208494, “The zinc metalloprotein MigC impacts cell wall biogenesis through interactions with an essential Mur ligase in Acinetobacter baumannii” (PLOS Pathogens, 2025)
